In test [1] the target is human CD19 (as in Table 11) (human) (UniProt P15391). Description: BIAcore (SPR); format not stated. (SPR reads the build-up and loss of mass on a sensor chip optically.)
Test [2] has the same target. The experiment in a line: binding to human CD19 after incubation at pH 6.0; method not stated.
Test [3] shares this target. Description: binding to human CD19 after incubation at pH 7.4; method not stated.

B1: wild-type humanized anti-human CD19 antibody 8B8 (antibody, V domains shown)
VH: QVQLVQSGAEVKKPGASVKVSCKASGYTFTDYIMHWVRQAPGQGLEWMGYINPYNDGSKYTEKFNGRVTMTSDTSISTAYMELSRLRSDDTAVYYCARGTYYYGSALFDYWGQGTTVTVSS
VL: DIVMTQTPLSLSVTPGQPASISCKSSQSLENSNGNTYLNWYLQKPGQSPQLLIYRVSKRFSGVPDRFSGSGSGTDFTLKISRVEAEDVGVYYCLQLTHVPYTFGQGTKLEIK
One may read the Kd as the constant that tells how readily two partners part at equilibrium. A higher Kd goes with lower affinity. Regarding B1, the Kd in test [1] came out at 5 nM. In test [2], this molecule registered a human CD19 binding after pH 6.0 incubation [%] of 90%. This molecule showed a human CD19 binding after pH 7.4 incubation [%] in test [3] of 46%.

For the origin of these results see US20200270321A1.
